Assay results published in PMC10279758.

Target: Arabidopsis thaliana Receptor-Like Protein 30, GFP-tagged (RLP30-GFP) (Arabidopsis thaliana) (UniProt Q9MA83)
Sequence of UniProt Q9MA83 (Q9MA83 31-786): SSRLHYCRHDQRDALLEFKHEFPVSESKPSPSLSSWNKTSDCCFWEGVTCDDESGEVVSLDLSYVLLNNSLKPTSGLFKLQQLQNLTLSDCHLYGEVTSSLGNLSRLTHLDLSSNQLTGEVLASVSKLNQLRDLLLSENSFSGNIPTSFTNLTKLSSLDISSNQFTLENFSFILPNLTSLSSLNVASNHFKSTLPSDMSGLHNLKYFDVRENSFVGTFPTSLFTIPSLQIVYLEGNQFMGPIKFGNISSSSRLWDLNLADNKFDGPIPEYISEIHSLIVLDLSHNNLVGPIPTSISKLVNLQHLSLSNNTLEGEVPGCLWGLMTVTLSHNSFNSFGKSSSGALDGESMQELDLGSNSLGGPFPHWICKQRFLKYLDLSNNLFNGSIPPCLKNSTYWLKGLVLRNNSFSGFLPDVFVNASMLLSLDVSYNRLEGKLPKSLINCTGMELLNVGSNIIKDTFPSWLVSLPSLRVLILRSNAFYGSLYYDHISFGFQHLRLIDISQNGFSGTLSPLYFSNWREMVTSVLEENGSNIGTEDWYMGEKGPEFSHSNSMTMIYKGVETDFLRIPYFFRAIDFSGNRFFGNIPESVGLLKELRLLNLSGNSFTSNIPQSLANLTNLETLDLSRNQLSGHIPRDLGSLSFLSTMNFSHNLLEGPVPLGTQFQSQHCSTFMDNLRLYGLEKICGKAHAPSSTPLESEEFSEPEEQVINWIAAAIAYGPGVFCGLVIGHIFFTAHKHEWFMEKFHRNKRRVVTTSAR

Substance: SMALL CYSTEINE-RICH PROTEIN FROM S. SCLEROTIORUM, myc-tagged (SCP^Ss-myc) (ligand)
- ethylene production in Arabidopsis Col-0 plants, half-maximal induction (EC50); the protein applied was His-tagged SCP^Ss from P. pastoris, affinity purified via His-Trap columns: 26 nM
